# Experimental data published in patent US20140308283A1 (TORAY INDUSTRIES, published 2014).
# T1: CAPRIN-1 protein expressed on the cell membrane surface of human cancer cell lines (human, UniProt Q14444 2-709)
# T1 construct: whole, on cells; also called human CAPRIN-1; Cytoplasmic- and proliferation-associated protein 1
# T1 sequence (looked up): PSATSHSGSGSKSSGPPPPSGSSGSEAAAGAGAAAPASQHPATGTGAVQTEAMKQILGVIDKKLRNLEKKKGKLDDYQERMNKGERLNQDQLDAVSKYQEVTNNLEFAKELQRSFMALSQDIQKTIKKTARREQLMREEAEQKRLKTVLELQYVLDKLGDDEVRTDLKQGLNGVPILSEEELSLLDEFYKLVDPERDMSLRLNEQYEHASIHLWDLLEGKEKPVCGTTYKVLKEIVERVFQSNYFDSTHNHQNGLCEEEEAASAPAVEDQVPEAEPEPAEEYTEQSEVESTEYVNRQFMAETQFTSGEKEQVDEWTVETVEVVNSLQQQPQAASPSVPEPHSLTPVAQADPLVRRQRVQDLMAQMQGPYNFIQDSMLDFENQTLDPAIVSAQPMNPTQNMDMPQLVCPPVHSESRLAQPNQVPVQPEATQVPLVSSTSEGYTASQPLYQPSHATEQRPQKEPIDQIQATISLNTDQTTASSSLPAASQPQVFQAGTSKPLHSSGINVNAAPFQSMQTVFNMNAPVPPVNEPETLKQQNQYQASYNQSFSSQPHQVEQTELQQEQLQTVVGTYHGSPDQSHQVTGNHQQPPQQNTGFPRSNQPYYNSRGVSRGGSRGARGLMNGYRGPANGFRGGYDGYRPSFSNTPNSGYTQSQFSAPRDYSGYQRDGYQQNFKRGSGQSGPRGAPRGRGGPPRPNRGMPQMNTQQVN
# T2: polypeptide of SEQ ID NO: 266 (human)
# T2 peptide: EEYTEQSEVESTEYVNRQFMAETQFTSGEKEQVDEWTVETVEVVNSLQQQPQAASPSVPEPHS
# T3: peptide of SEQ ID NO: 267 (human)
# T3 peptide: QQPQAASPSVPE
# What was measured:
# [1] = biological target: T1, CAPRIN-1 protein expressed on the cell …; experiment: flow cytometry on Capan-2, MIAPaCa-2, PANC-1 and BxPC-3 cells, vs isotype control
# Method: Next, four pancreatic cancer cell lines (Capan-2, MIAPaCa-2, PANC-1, and BxPC-3) confirmed to have CAPRIN-1 gene expression were examined for their expression of CAPRIN-1 protein on the cell surface. 10⁶ cells of each cell line were centrifuged in each 1.5-ml microcentrifuge tube. The cancer cell surface-reactive anti-CAPRIN-1 mouse monoclonal antibodies #1 to #22 prepared in Example 4 and the culture supernatant (100 μl) containing the anti-CAPRIN-1 mouse-chicken chimeric antibody #1, #2, or #3 prepared in the preceding paragraph (2) were separately added to the tubes and left standing for 1 hour on ice. After washing with PBS, the cells were suspended in FITC-labeled goat anti-mouse IgG antibodies (manufactured by Invitrogen Corp.) diluted 500-fold with PBS containing 0.1% FBS and left standing for 1 hour on ice. After washing with PBS, the fluorescence intensity was measured using FACSCalibur (Becton, Dickinson and Company). On the other hand, the same operation as above was performed using isotype control antibodies, instead of the anti-CAPRIN-1 mouse monoclonal antibodies #1 to #22 and the culture supernatant containing the mouse-chicken chimeric antibody #1, #2, or #3, to prepare a control. As a result, all the cells supplemented with any of the monoclonal antibodies #1 to #22 and the mouse-chicken chimeric antibodies #1, #2, and #3 had fluorescence intensity at least 20% stronger than that of the control. […] The above rate of enhancement in fluorescence intensity was indicated by the rate of increase in mean fluorescence intensity (MFI) in each cell line and calculated according to the following expression: […]
# [2] = biological target: T1, CAPRIN-1 protein expressed on the cell …; experiment: cell-based or functional assay
# [3] = biological target: T2, polypeptide of SEQ ID NO: 266; experiment: ELISA on immobilised synthetic CAPRIN-1 peptides
# Method: (§1) Then, the solution in each well was discarded, and each well was washed six times with PBST.
# (§2) A TMB substrate solution (manufactured by Thermo Fisher Scientific Inc.) was added thereto at a concentration of 100 μl/well and left standing for 15 to 30 minutes to cause color reaction. After the color development, the reaction was terminated by the addition of 1 N sulfuric acid at a concentration of 100 μl/well. The absorbance was measured at 450 nm and 595 nm using an absorption spectrometer. As a result, a polypeptide of SEQ ID NO: 266 was identified as a partial CAPRIN-1 sequence recognized by all of the anti-CAPRIN-1 antibodies human-chicken chimeric monoclonal antibody #1 and anti-CAPRIN-1 monoclonal antibodies #1 to #5. In the polypeptide of SEQ ID NO: 266, a peptide of SEQ ID NO: 267 was identified as a partial sequence recognized by the human-chicken chimeric monoclonal antibody #1 and the mouse monoclonal antibodies #3 and #4. In the polypeptide of SEQ ID NO: 266, a peptide of SEQ ID NO: 268 was identified as a partial sequence recognized by the mouse monoclonal antibodies #1, #2, and #5. […] Also, a polypeptide comprising the amino acid sequence of SEQ ID NO: 270 was identified as a partial CAPRIN-1 sequence recognized by all of the anti-CAPRIN-1 monoclonal antibodies #6, #7, and #8. […] In addition, a polypeptide comprising the amino acid sequence of SEQ ID NO: 272 was identified as a partial CAPRIN-1 sequence recognized by all of the anti-CAPRIN-1 monoclonal antibodies #9, #10, and #11. […] In addition, a polypeptide comprising the amino acid sequence of SEQ ID NO: 269 was identified as a partial CAPRIN-1 sequence recognized by the human-chicken chimeric monoclonal antibody #3.
# [4] = biological target: T3, peptide of SEQ ID NO: 267; experiment: ELISA on immobilised synthetic CAPRIN-1 peptides
# Method: as §1, §2
Binder,rate of increase in mean fluorescence intensity [1],binding result [3],binding result [4],cytotoxic activity (ADCC) against MIAPaCa-2 and Capan-2 [2]
"mouse monoclonal antibody #12 (antibody, V domains shown, Mouse hybridoma antibody; also called anti-CAPRIN-1 mouse monoclonal antibody #12) VH: EVQLHQFGAELVKPGASVKISCKASGYTFTDYNMDWVKQSHGKSLEWIGDINPNYDSTSYNQKFKGKATLTVDKSSSTAYMELRSLTSEDTAVYYCARSRSYDYEGFAYWGQGTLVTVSA VL: DIQMTQSPASLSASVGETVTITCRASGNIHNYLAWYQQKQGKSPQLLVYNAKTLADGVPSRFSGSGSGTQYSLKINSLQPEDFGSYYCQHFWSTLTFGAGTKLELKR",≥ 20%,–,–,≥ 10%
"human-chicken chimeric antibody #1 (antibody, human IgG1, kappa, V domains shown, also called human-chicken chimeric monoclonal antibody #1) VH: AVTLDESGGGLQMSRGGLSLVCKASGFDFSSYQMNWIRQAPGKGLEFVAAINKFGNSTGHGAAVKGRVTISRDNGQSTVRLQLNNLRAEDTAIYFCTKHAYGYCGSGTWCAAGEIDAWGHGTEVIVSS VL: QAASTQPSSVSANPGETVEITCSGGGSYSYGWFQQKSPGSAPVTVIYYNNKRPSDIPSRFSGSKSGSTGTLTITGVQADDEAVYYCGSGDSTDTAVFGAGTTLTVLG",–,binds,binds,–
"mouse monoclonal antibody #3 (antibody, V domains shown) VH: GGGLVKPGGSLKLSCAASGFTFSSYGMSWVRQTPEKRLEWVATISSGGSYTYYPDSVKGRFTISRDNAKNTLYLQMSSLRSEDTAMYYCASLASYYFDYWGQGTTLTVSS VL: not shown",≥ 20%,–,–,≥ 10%
mouse monoclonal antibody #6 (antibody) chain 1: DAELVKPGASVKISCKASGYTFTDHSIHWVQQKPEQGLEWIGYISPGNGNIKYNEKFKGKATLTADKSSSTAYMQLNSLTSEDSAVYFCKRSLGRGGPYYFDYWGQGTTVTVSS chain 2: DIVLTQAAPSLPVTPGESVSISCRSSKSLLHSNGNTYLYWFLQRPGQSPQLLIYRMSNLASGVPDRFSGSGSGTAFTLRISRVEAEDVGVYYCMQHREYPVTFGSGPN,≥ 20%,–,–,≥ 10%
"mouse monoclonal antibody #8 (antibody, V domains shown, Mouse hybridoma antibody; also called anti-CAPRIN-1 mouse monoclonal antibody #8) VH: GGGLVKPGGSLKLSCAASGFAFSSYDMSWIRQTPEKRLEWVAYISSGAGSTYYPDTVKGRFTVSRDNAKNTLYLQMSSLKSEDTAMYYCARHFYRFDYWGQGTTVTVSS VL: SIVMTQTPKFLLVSAGDRITITCKASQSVSNDVAWYQQKPGQSPKLLIYYASNRYTGVPDRFTGSGYGTDFTFTISTVQAEDLAVYFCQQDDRFPLTFGAGPS",≥ 20%,–,–,≥ 10%
"human-chicken chimeric antibody #2 (antibody, human IgG1, kappa, V domains shown) VH: AVTLDESGGGLQTPGGGLSLVCKASGFTFSSFDMGWVRQAPGKGLEFVAQINDAGSRTWYATAVKGRATISRDNGQTTVRLQLNNLRAEDTGTYYCTRGSGYVGAGAIDAWGHGTEVIVSA VL: AALTQPSSVSANPGETVKITCSGGSGYYGWYQQQKSPGSAPVTVIYQNDKRPSDIPSRFSGSGSGSTNTLTITGVQAEDEAVYFCGRYDSTDSGIFGAGTTLTVLT",–,–,–,≥ 10%

# Further lines, with some results ahead:
rate of increase in mean fluorescence intensity [1],binding result [3],binding result [4],Binder,cytotoxic activity (ADCC) against MIAPaCa-2 and Capan-2 [2]
≥ 20%,–,–,"mouse monoclonal antibody #15 (antibody, V domains shown, Mouse hybridoma antibody; also called anti-CAPRIN-1 mouse monoclonal antibody #15) VH: EVQLHQFGAELVKPGASVKISCKASGYTFTDYNMDWVKQSHGKSLEWIGDINPNYDSTSYNQKFKGKATLTVDKSSSTAYMELRSLTSEDTAVYYCARSRSYDYEGFAYWGQGTLVTVSA VL: SGDRVSLSCRASQSISNYLHWYQQKSHESPRLLIKYASQSISGIPSRFSGSGSGTDFTLSINSVETEDFGMYFCQQSNSWPYTFGAGTKLEIKQ",≥ 10%
≥ 20%,–,–,"mouse monoclonal antibody #14 (antibody, V domains shown, Mouse hybridoma antibody; also called anti-CAPRIN-1 mouse monoclonal antibody #14) VH: EVQLHQFGAELVKPGASVKISCKASGYTFTDYNMDWVKQSHGKSLEWIGDINPNYDSTSYNQKFKGKATLTVDKSSSTAYMELRSLTSEDTAVYYCARSRSYDYEGFAYWGQGTLVTVSA VL: DIQLTQSPASLSASVGETVTITCRASGNIHNYLAWYQQKQGKSPQLLVYNAKTLADGVPSRFSGSGSGTQYSLKINSLQPEDFGSYYCQHFWSTLTFGGGTKLEIK",≥ 10%
≥ 20%,–,–,"mouse-chicken chimeric antibody #1 (antibody, mouse IgG1, V domains shown, from CHO-K1 culture supernatant; also called anti-CAPRIN-1 mouse-chicken chimeric antibody #1) VH: AVTLDESGGGLQMSRGGLSLVCKASGFDFSSYQMNWIRQAPGKGLEFVAAINKFGNSTGHGAAVKGRVTISRDNGQSTVRLQLNNLRAEDTAIYFCTKHAYGYCGSGTWCAAGEIDAWGHGTEVIVSS VL: QAASTQPSSVSANPGETVEITCSGGGSYSYGWFQQKSPGSAPVTVIYYNNKRPSDIPSRFSGSKSGSTGTLTITGVQADDEAVYYCGSGDSTDTAVFGAGTTLTVLG",–
≥ 20%,–,–,mouse monoclonal antibody #13 (antibody) chain 1: EVQLHQFGAELVKPGASVKISCKASGYTFTDYNMDWVKQSHGKSLEWIGDINPNYDSTSYNQKFKGKATLTVDKSSSTAYMELRSLTSEDTAVYYCARSRSYDYEGFAYWGQGTLVTVSAAKTTPPSVY chain 2: AVLRCSRGLLVIWISDIQLTQSPSSLAVTAGEKVTMSCKSSQSLLWSVNQKNYLSWYQQKQRQPPKLLIYGASIRESWVPDRFTGSGSGTDFTLTISNVHAEDLAVYYCQHNHGSFLPSRSEQVPSWRSNNR,≥ 10%
≥ 20%,–,–,"mouse-chicken chimeric antibody #3 (antibody, mouse IgG1, V domains shown, also called anti-CAPRIN-1 mouse-chicken chimeric antibody #3) VH: AVTLDESGGGLQTPGGALSLVCKASGFTFSGYDMLWVRQAPGKGLEWVAGIGSTGGGTDYGAAVKGRATISRDNGQSTVRLQLNNLRAEDTATYYCAKVAGGCNSGYCRDSPGSIDAWGHGTEVIVS VL: AVTQQPASVSANPGETVKITCSGGGSRNYYGWYQQKSPGSVPVTVIYYDDQRPSNIPSRFSGALSGSTSTLTITGVQADDEAVYFCGSADSNTYEGSFGAGTTLTVL",–
≥ 20%,–,–,"mouse monoclonal antibody #18 (antibody, V domains shown, Mouse hybridoma antibody; also called anti-CAPRIN-1 mouse monoclonal antibody #18) VH: LQESGAELARPGASVKLSCKASGYTFTSYWMQWVKQRPGQGLEWIGAIYPGDGDTRYTQKFKGKATLTADKSSSTAYMQLSSLASEDSAVYYCARGEYGNYFAYWGQGTTVTVSS VL: TSDASLGERVTITCKASQDINSYLSWFQQKPGKSPKTLIYRANRLVDGVPSRFSGSGSGQDYSLTISSLEYEDMGIYYCLQYDEFPLTFGGGTKLEIKQ",≥ 10%
≥ 20%,–,–,"mouse-chicken chimeric antibody #2 (antibody, mouse IgG1, V domains shown, also called anti-CAPRIN-1 mouse-chicken chimeric antibody #2) VH: AVTLDESGGGLQTPGGGLSLVCKASGFTFSSFDMGWVRQAPGKGLEFVAQINDAGSRTWYATAVKGRATISRDNGQTTVRLQLNNLRAEDTGTYYCTRGSGYVGAGAIDAWGHGTEVIVS VL: AALTQPSSVSANPGETVKITCSGGSGYYGWYQQQKSPGSAPVTVIYQNDKRPSDIPSRFSGSGSGSTNTLTITGVQAEDEAVYFCGRYDSTDSGIFGAGTTLTVL",–
